Experiments:
[1] = biological target: PF-W-Trimer (pre-fusion trimerized SARS-CoV-2 WA1 spike protein ectodomain fused to the Trimer Domain) (SARS-CoV-2) (UniProt P0DTC2); experiment: SEC-MALS
[2] = biological target: PF-W-Trimer (pre-fusion trimerized SARS-CoV-2 WA1 spike protein ectodomain fused to the Trimer Domain) (SARS-CoV-2) (UniProt P0DTC2); experiment: reducing and non-reducing SDS-PAGE
[3] = biological target: PF-D-Trimer (pre-fusion trimerized SARS-CoV-2 Delta spike protein ectodomain fused to the Trimer Domain) (SARS-CoV-2) (UniProt P0DTC2); experiment: SEC-MALS
[4] = biological target: PF-D-Trimer (pre-fusion trimerized SARS-CoV-2 Delta spike protein ectodomain fused to the Trimer Domain) (SARS-CoV-2) (UniProt P0DTC2); experiment: reducing and non-reducing SDS-PAGE

Substance | stoichiometry N [1] | stoichiometry N [2] | stoichiometry N [3] | stoichiometry N [4]
PF-W-Trimer (pre-fusion trimerized SARS-CoV-2 WA1 spike protein ectodomain fused to the Trimer Domain) (from UniProt P0DTC2 14-1213) | 3 | 3 | – | –
PF-D-Trimer (pre-fusion trimerized SARS-CoV-2 Delta spike protein ectodomain fused to the Trimer Domain) (from UniProt P0DTC2 14-1213) | – | – | 3 | 3
